Source: publication PMC4673825, “Active site coupling in Plasmodium falciparum GMP synthetase is triggered by domain rotation” (Nature Communications, 2015)
Changes are numbered by the printed parent chain.

Legend:
PfATPPase = target: T1, PfATPPase (Plasmodium falciparum, UniProt Q8IJR9); experiment: ammonia-dependent GMP formation, absorbance decrease at […] nm; conditions: NH4Cl-dependent, 20 mM MgCl2, pH 8.5, 25 °C
T1 construct: gene GMPS
T1 sequence (Q8IJR9 237-555): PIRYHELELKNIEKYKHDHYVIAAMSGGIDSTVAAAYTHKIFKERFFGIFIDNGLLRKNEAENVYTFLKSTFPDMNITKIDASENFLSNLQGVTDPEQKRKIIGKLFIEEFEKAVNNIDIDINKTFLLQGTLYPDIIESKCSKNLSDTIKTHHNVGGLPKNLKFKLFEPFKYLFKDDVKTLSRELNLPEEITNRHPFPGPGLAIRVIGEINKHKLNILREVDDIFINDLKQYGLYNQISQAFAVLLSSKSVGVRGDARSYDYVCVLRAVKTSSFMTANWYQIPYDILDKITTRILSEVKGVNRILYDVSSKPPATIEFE

[1] = test system: O=c1[nH]c(=O)c2ncn([C@@H]3O[C@H](COP(=O)(O)O)[C@@H](O)[C@H]3O)c2[nH]1; experiment: purified protein; assay type: biochemical, Plasmodium falciparum; conditions: 2 mM ATP, 5 mM Gln, 20 mM MgCl2, pH 8.5, 25 °C, Gln-dependent
N = experiment: purified protein; conditions: 2 mM ATP, 150 μM XMP, 20 mM MgCl2, pH 8.5, 25 °C
[2] = target: the molecule itself; experiment: SAXS; in solution, 1.1-11 mg/ml in 20 mM Tris pH 7.4, 50 mM NaCl; data at 11 mg/ml analysed; ab initio envelope superimposed on the dimer crystal structure
SAXS = target: the molecule itself; experiment: SAXS
[3] = target: the molecule itself; experiment: SEC; analytical gel filtration, Superdex 200 HR 10/30, 50 mM Tris-HCl pH 7.4, 100 mM KCl; 100 μl of 20 μM protein, each injected individually
purified protein [4] = substrate: N; experiment: purified protein; conditions: 20 mM MgCl2, pH 8.5, 25 °C
purified protein [5] = substrate: O=c1[nH]c(=O)c2ncn([C@@H]3O[C@H](COP(=O)(O)O)[C@@H](O)[C@H]3O)c2[nH]1; experiment: purified protein; conditions: NH4Cl-dependent, 20 mM MgCl2, pH 8.5, 25 °C

Molecule: Nc1ncnc2c1ncn2[C@@H]1O[C@H](COP(=O)(O)OP(=O)(O)OP(=O)(O)O)[C@@H](O)[C@H]1O [ATP]
- Km (PfATPPase): 56 ± 16 µM

Molecule: PfGMPS (Plasmodium falciparum 3D7)
- Km [1]: 10 ± 2 µM
- kcat [1]: 0.733 ± 0.0167 s⁻¹
- kcat/Km [1]: 73300 M⁻¹ s⁻¹
- Km (N): 19 ± 1 mM
- kcat (N): 0.917 s⁻¹
- kcat/Km (N): 48.3 M⁻¹ s⁻¹

B1: Plasmodium falciparum GMP synthetase (PfGMPS), wild type (enzyme, UniProt Q8IJR9 1-555, looked up)
chain: MEGEEYDKILVLNFGSQYFHLIVKRLNNIKIFSETKDYGVELKDIKDMNIKGVILSGGPYSVTEAGSPHLKKEVFEYFLEKKIPIFGICYGMQEIAVQMNGEVKKSKTSEYGCTDVNILRNDNINNITYCRNFGDSSSAMDLYSNYKLMNETCCLFENIKSDITTVWMNHNDEVTKIPENFYLVSSSENCLICSIYNKEYNIYGVQYHPEVYESLDGELMFYNFAYNICKCKKQFDPIRYHELELKNIEKYKHDHYVIAAMSGGIDSTVAAAYTHKIFKERFFGIFIDNGLLRKNEAENVYTFLKSTFPDMNITKIDASENFLSNLQGVTDPEQKRKIIGKLFIEEFEKAVNNIDIDINKTFLLQGTLYPDIIESKCSKNLSDTIKTHHNVGGLPKNLKFKLFEPFKYLFKDDVKTLSRELNLPEEITNRHPFPGPGLAIRVIGEINKHKLNILREVDDIFINDLKQYGLYNQISQAFAVLLSSKSVGVRGDARSYDYVCVLRAVKTSSFMTANWYQIPYDILDKITTRILSEVKGVNRILYDVSSKPPATIEFE
notes: GMP synthetase of Plasmodium falciparum, EC 6.3.5.2, full-length enzyme of 555 residues: GATase domain 1-236 and ATPPase domain 237-555; also called guanosine 5'-monophosphate synthetase; ligand-free PfGMPS; source: E. coli AT2465 (pQE30PfGMPS), purified (HisTrap, Superdex 200 size exclusion)
- stoichiometry N [2]: 2

B2: PfGMPS_C89A (glutamine-bound inactive mutant of P. falciparum GMP synthetase) (enzyme)
chain: B1 chain with C89A
- stoichiometry N (SAXS): 2

B3: PfATPPase (isolated ATP pyrophosphatase domain of PfGMPS) (domain or fragment, Plasmodium falciparum, UniProt Q8IJR9 237-555, looked up)
chain: T1 sequence (Q8IJR9 237-555)
notes: ATPPase domain of Plasmodium falciparum GMP synthetase, residues 237-555; Cloned into pET-21b(+); also called ATPPase domain; source: E. coli BL21(DE3) (pETPfATPPase), purified (60% ammonium sulfate precipitation, CM-Sepharose cation exchange)
- stoichiometry N [3]: 2
- Km (purified protein [4]): 7.0 ± 0.3 mM
- kcat (purified protein [4]): 9.3 ± 0.1 min⁻¹
- Km (purified protein [5]): 11 ± 4 µM
